# Assay: soluble on expression in E. coli; label from the status in PepcDB or PDB records
row,Sequence,soluble on expression in E. coli
1,MGSDKIHHHHHHVLIGLSALSFSYRCGLIGRGTPRAVSHPLDIEGVMALASRAGLQSVEFPLSLLPDLSPGRLSALRERLTLCGLTPVADSDIVDVDTLRAHIPAAAMIGAHVLRVLISPVLEGYRRPFTTDWPAHLADVTDRLRAVIDLAAEHNIILAVENHQDATSADLAAICAAVDSPHIGVCFDAVNCLVVGETPYAALERLGPLIRNVHLADYETYPTTQGWRLVRCALGEGDLDIRRLFHLIEHYAPDVACQIELVSHSARHVRILDDDWWQGYPPCDVREVLPVLRLFAQTMRLRDDDWRTPWERGAGEEQISLYEDQQYATSIAYLRTIGILPRL,not soluble
2,MGSDKIHHHHHHMITNQKLKKSLEEIKNITSFDAILYSAKGKHLTGTVEEPEHSDIFVKEFIVSEEDVREKNDAIAFAVEIDSELEYVLVMFCPYTSENLVIGRMAVCQLRTLVLGESERYDRNNFIQNILLGNMLGSDIINRAKKLHIENRKRVVYVIDTGKNSNEIAVELAKNLADIRSGDFVVAMDEHNVVLVKDVEDIDSPKLQEKLSSIAGSLVDNLLAEAMIKVRVGYGNPTDVLPKITESYQEAKMALEVGRLFYVEKEIMAYDRLGIGRLIYQLPMSLCEMFIREVFGDEVPQILDDEEAMSTISKFFENNLNISETARQLYVHRNTLVYRLERIEKSIGLDIRTFDDAMIFKIATMVLAHIKDSRQGR,not soluble
3,MRKLKITELNRISAEEFKQAEKLPLVVVLDDIRSLHNIGSVFRTSDAFRIECIYLCGITATPPHPEMHKTALGAEFTVDWKYVNNAVDAVDNLRKEGYIVYSIEQAEGSIMLDRLELDKTKKYAIVMGNEVKGVQQEVIDHSDGCIEIPQYGTKHSLNVSVTTGIVIWDLFKKLR,not soluble
4,MRGKLDLGEQPLVLIWEVTQACELACKHCRADAQPRRHPDELSTAEGKALLDQASEFGDGQLVVLSGGDPLARGDLPELVEYGTEQGLRMTLTPSGTNSITPERLAELDDAGLRRLALSIDGGDSDAHDTFRGESGSFEATMAAAEAARNLDIPLQINTTVCAETVEQLPAIRDLVADLDAVLWSVFFLVPVGRGRVLTPIDPERAERVLKWLHEVSDEASFGLKTTEAPHYRRVAMEQQDEGASGLKRRMGIRAGKGFAFVSHTGEVFPSGFLPKSAGSVREESVVDIYRDSPLFQQLRDDDALTGKCGACRYRTVCGGSRSRAYATTGDPLAADPLCDYRPDGFEGSVPDQHPAD,not soluble
5,MFDSIRETIDYAVENNMSFADIMVKEEMELSGKSRDEVRAQMKQNLDVMRDAVIKGTTGDGVESVTGYTGHDAAKLRDYNETHHALSGYEMIDAVKGAIATNEVNAAMGIICATPTAGSSGTIPGALFKLEKTHDLTEEQMIDFLFTSALFGRVVANNASVAGATGGCQAEVGSASAMAAAAAVAIFGGSPEASGHAMALAISNLLGLVCDPVAGLVEIPCVMRNAIGSGNALISADLALAGIESRIPVDEVIEAMDKVGRNLPASLRETGLGGLAGTPTGEAIKRKIFGTAEDMVKNN,not soluble
6,GGDVLERQMALMAQAAQRVQDMKRFVWDSLDSMPEPVVVTDLAGTVLIANHAAKRYCARLSAPAPEGRPLRVAFGELSFVKTVDGNAEQDVEIRSHWPAALDPTRDYENDVMERGIEVRDLSGLDHLLRYAPCTNAQGNVTGWIASLVDVTALHAAERQREEALHLLSHDM,soluble
7,MAHHHHHHMRKKGSGFIGGKLNLKIKKKKKNAKQEARHGEASHVDSVAKSGEAVQVKSDPSEHDGKKDGSEKIIKGTGRITTEKNTVRGVRTDFMAEIKEGYDIILENPSTFRNERRTVTSVLSNKTLLVHEEFTTDISTTCAFYIASGGKSGGKPVGQPADTPEAHIGVEYAKVFEQTSRQDQVEVREKTGLWSYRVVKKKVDGRLTNEEKLDMRVRSGRDKFCW,not soluble
8,MYKYFDAHCHYSYLKKKYEGYLIAAVSMDYQSAMDTFSLKSDNVLVGVGIHPWRVHEEDLTRILSLIIKADFVGEVGLDYRFAKAPKELQIKYFEEQIKAGEGKLINVHALDAWKDAFNILVKNDVKSAIFHWYTGPINLLKDIESAGYFISINPSVSFQKKHQEVLKNVDLKNVLTESDGGYEYRGKLLEPSDIPNAISFMSNFLGIEEYKLVRIISNNFFKAYGVNPVNN,not soluble
9,MAAKPGIPKGTRDFSPVEMAKRNYIFNTIRDVFHLFGYQQIETPSMENLSTLMGKYGDEGDKLLFKIQNSGDYFNGITDEELLSRNAVKLASKFCEKGLRYDLTVPFARYVVMHRDEISFPFKRYQIQPVWRADRPQKGRYREFYQCDADVVGSNSLLNEVELVQMIDRVFGKFGVRVSIKINNRKILTGIAEIIGEADKIVDITVAIDKLDKIGLENVNAELASKGIPQEAIDKLQPIILLSGSNEEKLETLKTVLATSEAGLKGVEESEFILKTVSALGVKSEVELDLTLARGLNYYTGAIFEVKALDVQIGSISGGGRYDNLTGVFGMDGMSGVGISFGADRIFDVLNQLDLYPKEAVNGTELLFVNFGDKEAAYCLPILTKVREAGVRAEIYPDASKMKKQMGYANDKQIPFVAIVGENEMNEGKLTLKNMTTGEQSLVTPDELLAVVKA,not soluble
10,PKKEVVRIHASSGTTGKPTVVGYTKKDLKTWAELISRVVTAAGVTDEDTAQVAFGYGLFTGGFGLHYGLENVGASVIPMSSGNTEKQIMLMKDFETTVLICTPSYALYISEVAQKMGIDPKKDLKLKIGLFGGEACSESARTEIESKWGILATQNYGMSELMGPGVSGECEYQCGMHIS,not soluble
11,MTDLNRTALPSRTDGTVEKTDTLVVGAGQAGVAMSEHLSRLGVPHLVLERNRIAEAWRSGRWDSLVANGPAWHDRFPGMEFDIDPDGFPGKDQVAAYFEAYAKRFDAPIRTGVEVRKVVRNVGRPGFTVDTSAGTIEANRVVAATGPFQRPVIPPIAPRDERIRQIHSAHYYNPQQLPEGAVLVVGAGSSGVQIADELQRAGRQVYLSVGAHDRPPRSYRNRDFCWWLGVLGEWDAEVAKPGREHVTIAVSGARGGHTVDFRALAHQGVTLVGLTESFVDGVATFRPDLAENLARGDENYLALLDAADAYIARNGLDLPEEPEARRRLPDPQCVTDPILELDLAEAGVGSIIWATGYAVDFGWLQVDAFDRDGKPRHQRGVSSEPGVYFIGLPWLSRRGSSFIWGVWHDARHVADHIAIQRKYLAYRDAAQRQEQDRASQAPQTSLQEVS,not soluble
12,MTEVIGIKFEENGAVEYVVPDKNYTKGDFVVVLEKKDKRLAQVVMENTVFPEVSLPVDLNRVEGLASKRDFARYDENLLKAEQSMGVVADLIAQNQLDMKVVDIVFPLNSSYVLISFVAEKRVDFRQLLEDLAAYFKTRIELRQISSREESKIYGGLGPCGRALCCSSFLGEFPPVSIKMAKNQSLSLNSGKMNGVCGRLMCCLSYEDDFYRDSKASYPDLGEEIETKEGRGQVIAIDVIAGTVKVMFEKGGAPLTYGVEEVQLNGKAAAALEHHHHHH,soluble
13,MTMQFKIPTVLRSQEIIDKSFSRASKIEEPYFPDKVERIKKEVQDRISAIESISCSHLDKLVKRFPSIERMHPFYRSLIDLMFDVDQYKIALSKVDATSANIKRISTEYIRKLRPVKDVGNANQIMRAYYGRFASLIEDLNETLLFLGRCRDYIRKLPEVRTDLKTYIIAGMPNVGKSSLLASLTTAKPKIASYPFTTKNVIIGYNESGSERIQFIDTPGILDRDFSEMNEIEKNAILAIRFIEGKIIFLFDYSTESLYTREQQEHLYEQIKNNINPNIIRVQTKLDISTEKVENIAISVNIESGLEPLRKIIFDGGVIDVRGRNLEHHHHHH,soluble
14,MAHHHHHHMFKCATRCLLDTKTVPLKPQRPFKLHTAGRTDMAPLPTQAVYDAEQLKQSLALMFRIRRMESLCDQSYKLKKIRGFCHLYIGQEAIPAGMENVLTFEDPIITGYRDHGWYISRGGKPEDVFAEMFGRQGGCSKGKGGSMHMYRVDNGFYGGNGIVGAQVSIGAGLAWRFAMENRDSPKHVAVTFYGDGAANQGQIYESMNIAALQRLPVIFAVENNHFGMGTSAARGSYQAEFYRRGDYIPGIKVDGMDVLAVQEGTRYARDYCMSGKGPIVMELDCYRYMGHSMSDPDNQYRTKSDIQHVKQERDCIRKMREFMATEGIMTEDEMSKMEKDVKKEVDQDLQKAQKQPMTKLDELFTDIYVGEQYEHRTCQGTVYHKP,not soluble
